Bridge positions count the residues as written; N and C are the ends. Square brackets hold non-standard residues; d marks the D form. Primed or numbered codes have the meaning given here. Side chains are listed from the residue outwards. Ends that are not written are not given here. * marks the point of attachment. :N‑O‑CH2‑CO‑PEG27 = oxime linkage (=N-O-CH2-CO-) to a PEG27 spacer; Biotin = O=C1N[C@H]2[C@H](CS[C@H]2CCCCC(=O)*)N1; PEG2(3) = PEG2 spacer carrying biotin on Lys; 1Nal = N[C@@H](Cc1cccc2ccccc12)C(=O)O; Palmitoyl = CCCCCCCCCCCCCCCC(=O)*; NMeL = CN[C@@H](CC(C)C)C(=O)O; Tle = CC(C)(C)[C@H](N)C(=O)O; PEG16″ = not defined here; Nle = CCCC[C@H](N)C(=O)O; PEG2′ = PEG2 spacer unit; PEG2″ = not defined here; PEG16′ = PEG-16 spacer; Aib = CC(C)(N)C(=O)O A value given as a limit tells only on which side of the number the result lay.

B1: rRAPGKLTCLASYCWLFSTGIA (peptide)
peptide: [dR]RAPGKLTCLASYCWLFSTGIA
modifications: not fully specified (C-terminus); printed as rRAPGKLTCLASYCWLFSTGIA; cysteine pairing not given here
B2: rRAPGKLTCLASYCWLSWTGIA (peptide)
peptide: [dR]RAPGKLTCLASYCWLSWTGIA
modifications: not fully specified; printed as rRAPGKLTCLASYCWLSWTGIA; cysteine pairing not given here
B3: RRAPGKLQCLASYCWLFWTG-Tle-A (peptide)
peptide: RRAPGKLQCLASYCWLFWTG[Tle]A
modifications: not fully specified; printed as RRAPGKLQCLASYCWLFWTG-Tle-A; cysteine pairing not given here
B4: RRAPGKLQCLASYCWLFWT-Aib-IA (peptide)
peptide: RRAPGKLQCLASYCWLFWT[Aib]IA
modifications: not fully specified; printed as RRAPGKLQCLASYCWLFWT-Aib-IA; cysteine pairing not given here
B5: (KLTCLASYCWLFG)2═N-O-(CH2)3-O-N═ (peptide)
peptide: KLTCLASYCWLFG
modifications: cysteine pairing not given here; also: dimer: two copies joined by ═N-O-(CH2)3-O-N═ (linker 1) at residue 13
B6: rRAAGKLTCLASACWLFATGIA (peptide)
peptide: [dR]RAAGKLTCLASACWLFATGIA
modifications: not fully specified (C-terminus); printed as rRAAGKLTCLASACWLFATGIA; cysteine pairing not given here
B7: RRAPGKLQCLASYCWLFWTG-(1-Nal)-A (peptide)
peptide: RRAPGKLQCLASYCWLFWTG[1Nal]A
modifications: not fully specified; printed as RRAPGKLQCLASYCWLFWTG-(1-Nal)-A; cysteine pairing not given here
B8: RRAPGKLQCLASYCWLFWTG-Nle-A (peptide)
peptide: RRAPGKLQCLASYCWLFWTG[Nle]A
modifications: not fully specified; printed as RRAPGKLQCLASYCWLFWTG-Nle-A; cysteine pairing not given here
B9: k-MeLeu-TCLASYCWLA (peptide)
peptide: [dK][NMeL]TCLASYCWLA
modifications: not fully specified (C-terminus); printed as k-MeLeu-TCLASYCWLA; cysteine pairing not given here
B10: rRAPGKSTCLASYCWLFWTGIA (peptide)
peptide: [dR]RAPGKSTCLASYCWLFWTGIA
modifications: not fully specified (C-terminus); printed as rRAPGKSTCLASYCWLFWTGIA; cysteine pairing not given here
B11: Palmitoyl-(PEG)27(PEG)27-KLTCLASYCWLF (peptide)
peptide: {Palmitoyl-(PEG)27-(PEG)27}-KLTCLASYCWLF
modifications: disulfide 4-9 (inferred); not fully specified (C-terminus); printed as Palmitoyl-(PEG)27(PEG)27-KLTCLASYCWLF
B12: KLLKLLLKLLLKLLK-k-MeLeu-TCLASYCWLF (peptide)
peptide: KLLKLLLKLLLKLLK[dK][NMeL]TCLASYCWLF
modifications: not fully specified; printed as KLLKLLLKLLLKLLK-k-MeLeu-TCLASYCWLF; cysteine pairing not given here
B13: rRAAGKATCLASACW LAATGIA (peptide)
peptide: [dR]RAAGKATCLASACWLAATGIA
modifications: not fully specified (C-terminus); printed as rRAAGKATCLASACW LAATGIA; cysteine pairing not given here
B14: rRAAGKLTCLASYCWLAATGIA (peptide)
peptide: [dR]RAAGKLTCLASYCWLAATGIA
modifications: not fully specified (C-terminus); printed as rRAAGKLTCLASYCWLAATGIA; cysteine pairing not given here
B15: rRAAGKLTCLASYCWLFATGIA (peptide)
peptide: [dR]RAAGKLTCLASYCWLFATGIA
modifications: not fully specified (C-terminus); printed as rRAAGKLTCLASYCWLFATGIA; cysteine pairing not given here
B16: rRASGKLTCLASYCWLFWTGIA (peptide)
peptide: [dR]RASGKLTCLASYCWLFWTGIA
modifications: not fully specified (C-terminus); printed as rRASGKLTCLASYCWLFWTGIA; cysteine pairing not given here
B17: H3N-KLTCLASYCWLFG═N-O-CH2-CO-PEG27-CNPRGD-(Y-OEt)-RC (peptide)
peptide: H-KLTCLASYCWLFG[:N‑O‑CH2‑CO‑PEG27]CNPRGDY(OEt)RC
modifications: numbers in words are those of the source; cysteine pairing not given here; also: oxime link =N-O-CH2-CO-PEG27 between G13 and C14, Y20 as Y-OEt

The target in the test is human Factor IXa (human, UniProt P00740 47-191; P00740 227-461). The test is described as follows: cell-based or functional assay.
For the molecule B1, the “EC50 [µM], FXa generation assay” value is less than 0.5 µM.

Turning to PGKLQCLASYCWLFWTGIA, the “EC50 [µM], FXa generation assay” value is less than 0.5 µM. On the same count and under the same terms, with B2 the figure was greater than 5 µM; with B3, less than 0.5 µM. On the same count and under the same terms, in the case of RRAPGKLQCLASYCWLFWTGFA it was less than 0.5 µM; in that of B4, greater than 1 µM. The same measure, in the same setting: with RRAPGKLQCLASYCWLFWTG the figure was greater than 1 µM; with B5, less than 0.5 µM; with RAAPGKLQCLASYCWLFWTGIA, less than 0.5 µM. As to B6, the “EC50 [µM], FXa generation assay” value was greater than 1 µM. Consider B7, for which the “EC50 [µM], FXa generation assay” value is less than 0.5 µM. Consider ARAPGKLQCLASYCWLFWTGIA, for which the “EC50 [µM], FXa generation assay” value was less than 0.5 µM.

As for RRAPGKLQCLASYCWLFWTKIA, the “EC50 [µM], FXa generation assay” value was greater than 1 µM. Still for that read-out and setting: in the case of RAPGKLQCLASYCWLFWTGIA it was less than 0.5 µM.

As to GKLQCLASYCWLFWTGIA, the “EC50 [µM], FXa generation assay” value was less than 0.5 µM. Still for that read-out and setting: in the case of RRAPGKLQCLASYCWLFWTGLA it was less than 0.5 µM. The same measure, in the same setting: in the case of B8 it was less than 0.5 µM; in that of B9, greater than 1 µM; in that of B10, less than 0.5 µM. Same read-out and setting: in the case of RRAPGKLQCLASYCWLFWTGKA it was greater than 5 µM; in that of B11, greater than 20 µM.

With R[dR]APGKLTCLASYCWLFWTGIA-NH2 (cysteine pairing not given here) [compound 6], the “EC50 [µM], FXa generation assay with hFIXa” value (from here on “EC50 [µM] … with hFIXa”) is less than 0.5 µM. As for {Palmitoyl-(PEG)27}-KLTCLASYCWLF (cysteine pairing not given here) [Palmitoyl-(PEG)27-KLTCLASYCWLF], the “EC50 [µM], FXa generation assay” value is greater than 1 µM.

[dR]RAPGKLTCLASYCWLFWTGIA[PEG16′]K([PEG2(3)-Biotin])[PEG16′]K(Palmitoyl) (cysteine pairing not given here) [rRAPGKLTCLASYCWLFWTGIA-PEG16-Lys(PEG2-Biotin)-PEG16-Lys(palmitoyl)]: the “EC50 [µM], FXa generation assay” value was greater than 1 µM. As for B12, the “EC50 [µM], FXa generation assay” value was less than 0.5 µM. On the same count and under the same terms, in the case of B13 it was greater than 10 µM. Consider RRAPK([PEG2(3)-Biotin])KLTCLASYCWLFWTGIA-NH2 (cysteine pairing not given here) [compound 20], for which the “EC50 [µM] … with hFIXa” value is less than 0.5 µM. For the molecule [PEG16″]K([PEG2″-Biotin])[PEG16″][dR]RAPGKLTCLASYCWLFWTGIA (cysteine pairing not given here) [PEG16-Lys(PEG2-Biotin)-PEG16-rRAPGKLTCLASYCWLFWTGIA], the “EC50 [µM], FXa generation assay” value was greater than 1 µM.

As for B14, the “EC50 [µM], FXa generation assay” value was greater than 10 µM. On the same count and under the same terms, with RRAPGKLQCLASYCWLF the figure was greater than 5 µM; with RRAPGKLQCLASYCWLFWKGIA, greater than 5 µM; with RRAPGKLQCLASYCWLFWT, greater than 1 µM. APGKLQCLASYCWLFWTGIA: the “EC50 [µM], FXa generation assay” value is less than 0.5 µM.

As for RRAPGKLQCLASYCWLFW, the “EC50 [µM], FXa generation assay” value was greater than 1 µM. Same read-out and setting: in the case of B15 it was less than 0.5 µM; in that of RRAPGKLQCLASYCWLFWTGIK, greater than 1 µM.

Regarding B16, the “EC50 [µM], FXa generation assay” value was less than 0.5 µM.

With [dR]RAPGKLTCLASYCWLFWTGIA[PEG16″]K([PEG2″-Biotin])[PEG16″] (cysteine pairing not given here) [rRAPGKLTCLASYCWLFWTGIA-PEG16-Lys(PEG2-Biotin)-PEG16], the “EC50 [µM], FXa generation assay” value is less than 0.5 µM. Consider B17, for which the “EC50 [µM], FXa generation assay” value is greater than 50 µM. In the case of RRAPGKLTCLAK([PEG2′-Biotin])YCWLFWTGIA-NH2 (cysteine pairing not given here) [compound 18], the “EC50 [µM] … with hFIXa” value is less than 0.5 µM.

These data come from patent US20140303084A1 (Biogen, published 2014).
